The values below are quoted from earlier work in article PMC6087734, “Loss of S100A1 expression leads to Ca^2+ release potentiation in mutant mice with disrupted CaM and S100A1 binding to CaMBD2 of RyR1” (Physiological Reports, 2018).

For this series, the system named is RyR1. Particulars: in vitro FRET; ref Rebbeck et al. 2016; cited from earlier work. An excerpt:
In fast‐type skeletal muscle the intracellular concentration of S100A1 was reported to be ~3 μmol/L (Haimoto and Kato 1987; Zimmer et al. 1991), with total intracellular concentration of CaM being about 5 μmol/L (Robertson et al. 1981).

B1: S100A1: 21 kDa dimeric molecule characterized by its EF‐hand Ca^2+‐binding motifs (protein, UniProt P23297 1-94, looked up)
Protein S100-A1: MGSELETAMETLINVFHAHSGKEGDKYKLSKKELKELLQTELSGFLDAQKDVDAVDKVMKELDENGDGEVDFQEYVVLVAALTVACNNFFWENS
For B1, the “S100A1 concentration required for RyR1 modulation, in words” value was “high unphysiological (micromolar) concentration”.
